Test results as given in PMC7870652.

Legend:
[1] = molecular target: CDH23 EC1-5/EC3-5 single-bond fusion protein (asymmetric Fc heterodimer with one EC1-2 binding domain) (mouse) (UniProt Q99PF4); assay: single-molecule force spectroscopy (optical tweezers); single-bond EC1-5/EC3-5 proteins, each on a DNA tether on a streptavidin bead in a dual-beam optical trap; 50 µM Ca2+, TBS buffer, room temperature; Bell-Evans fit of most-probable unbinding forces against loading rate, constants extrapolated to zero force
[2] = molecular target: truncated CDH23 EC1-5 dimer fusion protein (two EC1-5 strands) (mouse); assay: BLI; CDH23 biotinylated on its SNAPtag and immobilised on streptavidin-coated PEG-biotin aminopropylsilane sensors; 10–300 nM PCDH15 in solution; TBS-Tween + Ca^2+ buffer, 2 mM Ca^2+; traces of a drift sensor and of PCDH15 lacking EC1-2 subtracted; dissociation fitted with a single exponential; on-rates measured at 300 nM PCDH15 (effective on-rate); Octet Red384

Substance | koff [1] | mean lifetime of the connection at zero force [2]
PCDH15 EC1-5/EC3-5 single-bond fusion protein (asymmetric Fc heterodimer with one EC1-2 binding domain) (from UniProt Q99PJ1-1 27-1943; Q99PJ1-1 27-1943) (Fc fusion) | 1.2 s⁻¹ | 
truncated PCDH15 EC1-5 dimer fusion protein (two EC1-5 strands) (Fc fusion) |  | 27.1 s
